Among the data in article PMC8476643 (Nature Communications, 2021) are Kd, koff and kon values, retold here.

For assay [1], the target named is T1, SARS-CoV-2 two-proline stabilized S trimer (S-2P) (SARS-CoV-2 Wuhan-Hu-1 (GenBank …, UniProt P0DTC2, stabilised)).
T1 construct: also called SARS-CoV-2 S-2P
The experiment in a line: SPR. As to conditions: both partners purified.

In assay [2] the target is T1, SARS-CoV-2 two-proline stabilized S …. The experiment in a line: SPR. To be noted: both partners purified. The source holds these as a separate data set.

B1: 6D6 monoclonal antibody (antibody, V domains shown)
VH: EVQLQQSGAELVKPGASVKLSCTTSGFNIIDTYMHWVKQRPEEGLEWIGGIDPVNGNSEYDPKFQDKATITADTSSNTAYLHLSRLTSEDTAVYYCASAHYYGSSSSFPYWGQGTLVTVSA
VL: DIVMTQSQKFMSTSVGDRVSVTCKASQNVGTHVAWYQQKPGQSPKALIYSASYRYSGVPDRFTGSGVGTDFTLTITNVQSEDLAEYFCQQYNSYFTFGSGTKLEIK
notes: also called mAb 6D6; source: mouse hybridoma, ascites, purified (protein A agarose); copies: 2 + 2
In assay [1], B1 registered a Kd of 0.03 nM, a koff of 4.2e-06 s⁻¹ and an on-rate (kon) of 123000 M⁻¹ s⁻¹.

B2: 7D6 monoclonal antibody (antibody, V domains shown)
VH: EVQLQQSGAELVRPGASVKLSCTASGFNIKDTYIHWVKQRPEQGLEWIGRIDPGDGDTEYDPSFQGKATITADTSSNTAYLELSSLTSEDTAVYYCTRFYDYVDYGMDYWGQGTSVTVSS
VL: DIQMTQSPASLSASVGETVTITCRASGNIHNYLAWYQQKQGKSPQLLVYNAKTLADGVPSRFSGSGSGTQYSLKINSLQPEDFGSYYCQHFWSTPPWTFGGGTKLEVK
notes: also called mAb 7D6; source: mouse hybridoma, ascites, purified (protein A agarose); copies: 2 + 2
Turning to B2, binding in assay [2] was characterised by a dissociation constant (Kd) of 5.8 nM. Besides, in assay [1], binding was characterised by a dissociation constant (Kd) of 5.89 nM, the koff came to 8.81e-05 s⁻¹ and the on-rate constant (kon) turned out to be 15200 M⁻¹ s⁻¹.

For orientation: Kd means the equilibrium constant for the complex coming apart. High values mean lower affinity, low ones higher affinity. As a reminder, the koff is a measure of how fast the partners let go of each other. High values mean a short-lived complex, low ones a long-lived complex. What is called kon is the rate constant with which the complex forms.
